In assay [1] the target is T1, GST binding HB-EGF remaining fragment (UniProt P08515 1-218 = GST; Q99075 185-208).
T1 construct: also called remaining fragments of HB-EGF
As to the kind of experiment: GST pull-down, anti-FLAG immunoblot. On the technique in general: In western blotting, separated proteins are transferred to a membrane and probed.
Experimental: Test Method (1) In order to specify a region of PLZF protein that interacts with a remaining fragment, GST pull-down assay was performed.
(2) GST, GST binding HB-LGF remaining fragments that were expressed and isolated with *E. coli* BL21 strain according to the GST pull-down assay standard protocol were used. The fragments were bound to Glutathione Sepharose beads, and then cell lysates containing various FLAG-tagged PLZF protein derivatives were incubated with 20 µl of the beads at 4° C. for two hours. After washing with water, the bound protein was analyzed by immunoblotting using anti-FLAG antibody (referring to the peptide sold under the trademark FLAG by Sigma Aldrich Co.).

Assay [2] concerns the target T1, GST binding HB-EGF remaining fragment. As to the kind of experiment: GST pull-down, same method as Test Example 1.

T1 sequence (P08515 1-218, tags or fused parts left off): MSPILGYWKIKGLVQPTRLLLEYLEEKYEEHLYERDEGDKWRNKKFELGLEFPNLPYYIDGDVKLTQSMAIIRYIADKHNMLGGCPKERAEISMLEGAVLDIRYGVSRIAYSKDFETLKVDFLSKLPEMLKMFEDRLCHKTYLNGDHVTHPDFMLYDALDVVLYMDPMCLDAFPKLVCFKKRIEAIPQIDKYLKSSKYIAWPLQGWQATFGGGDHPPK

B1: PLZF protein derivative consisting only of a region of Zn6 to Zn7 (other, UniProt Q05516 546-596, looked up)
chain: YECEFCGSCFRDESTLKSHKRIHTGEKPYECNGCGKKFSLKHQLETHYRVH
notes: domain: Zn6 to Zn7; also called FLAG-tagged PLZF protein derivative 7); not shown: FLAG synthetic octapeptide tag (Sigma-Aldrich)
With B1, the binding result in assay [1] is “no binding”.

B2: Bcl-6 protein derivative consisting only of a region of Zn1 to Zn4 (other, UniProt P41182 518-624, looked up, not shown: small tags and cut ends)
chain: FFCNECDCRFSEEASLKRHTLQTHSDKPYKCDRCQASFRYKGNLASHKTVHTGEKPYRCNICGAQFNRPANLKTHTRIHSGEKPYKCETCGARFVQVAHLRAHVLIH
notes: domain: Zn1 to Zn4; also called Bcl-6 protein derivative 8)
For B2, in assay [2], the binding result is recorded as “no binding”.

B3: PLZF protein derivative consisting only of the BTB region (other, UniProt Q05516 1-132, looked up)
chain: MDLTKMGMIQLQNPSHPTGLLCKANQMRLAGTLCDVVIMVDSQEFHAHRTVLACTSKMFEILFHRNSQHYTLDFLSPKTFQQILEYAYTATLQAKAEDLDDLLYAAEILEIEYLEEQCLKMLETIQASDDND
notes: domain: BTB region; also called FLAG-tagged PLZF protein derivative 6); not shown: FLAG synthetic octapeptide tag (Sigma-Aldrich)
With B3, in assay [1], the binding result is given as “no binding”.

Values taken from patent publication US7498127 (dated 2009).
